Test [1] addresses SARS-CoV-2 RBD, wild type (Sino Biological) (SARS-CoV-2) (UniProt P0DTC2). The test is described as follows: BLI, affinity format: binder on AHC sensor, RBD in solution. (Biolayer interferometry detects binding as a change in optical thickness at a sensor tip.)
Test [2] has the same target. The test is described as follows: BLI, avidity format: response at highest analyte concentration.
Test [3] shares this target. The test is described as follows: BLI, affinity format: response at highest analyte concentration.
Test [4] has the same target. The test is described as follows: BLI, avidity format: biotinylated RBD on SA sensor, binder in solution.

pKd: −log10 of the molar value.

As usually defined, the pKd is −log10 of the Kd, conventionally taken in molar units. The low end stands for a large Kd, the high end for a small Kd. The koff is a measure of how fast the partners let go of each other. The low end stands for slow dissociation, the high end for fast dissociation. For orientation: kon means the rate constant with which the complex forms. A higher kon goes with faster complex formation. In test [1], Cilgavimab (antibody) had a pKd of 8.40, a koff of 0.00172 s⁻¹ and an on-rate (kon) of 434000 M⁻¹ s⁻¹. Moreover, the Response in test [2] turned out to be 0.64 nm shift. The Response in test [3] was 0.397 nm shift. In test [4], this substance had a pKd of 9.68, a koff of 6.53e-05 s⁻¹ and a kon of 312000 M⁻¹ s⁻¹.

The values are drawn from US20230365956A1.
